Source: US20230213527A1, “COMPOSITIONS AND METHODS FOR POLYPEPTIDE ANALYSIS” (Quantum-Si Incorporated, priority 2021, published 2023)

Experiments:
[1] = system: N-terminal lysine and histidine; assay: Polarization binding assay of PS691, peptides with N-terminal arginine, lysine, histidine; settings: compared with N-terminal arginine
Method: In a separate screen, a diverse set of UBR-box domains from the UBR family of ubiquitin ligases that natively bind N-terminal arginine, lysine, and histidine were investigated. […] PS691 recognized arginine in a peptide with N-terminal RLA with a median PD of 0.23 s (FIG. 2C).
(§1) Binding affinity was measured by polarization using a labeled peptide. The polarization response and total intensity measurements were carried out at 20° C. on a microplate fluorometer with 480 nm excitation and 530 nm emission. The interaction of recognizer with labeled peptide containing a target N-terminal residue (XAKLDEESILKQK-FITC (SEQ ID NO: 833)) was performed in PBS buffer at pH 7.4 and readings were collected after 30 min. Multiple analyses were performed at increasing recognizer concentration at a fixed concentration of a target peptide to obtain a titration curve. An equilibrium polarization response at each concentration was plotted and fit to calculate the KD.

[2] = molecular target: N-terminal leucine, isoleucine, and valine; assay: Binding affinity of PS961 (bulk characterization, polarization), N-terminal leucine, isoleucine, valine
Description: To expand the set of recognizable NAAs, N-end rule pathway proteins were investigated as a source of additional recognizers. In a comprehensive screen of diverse ClpS family proteins, a group of ClpS proteins from the bacterial phylum Planctomycetes with native binding to N-terminal leucine, isoleucine, and valine was discovered. […] The median PD of binding to peptides with N-terminal LAA, IAA, and VAA was 1.21, 0.28, and 0.21 s, respectively, in agreement with bulk characterization (FIG. 7C).
as §1

Binding to N-terminal lysine and histidine [1] | Affinity [2] | Molecule
Lower affinity | – | PS691: arginine recognizer generated from the UBR-box domain of K. lactis UBR1 protein (protein) MHSKFSHAGRICGAKFKVGEPIYRCKECSFDDTCVLCVNCFNPKDHTGHHVYTTICTEFNNGICDCGDKEAWNHTLFCKAEEGGSAGSAAGSGEFMHSKFSHAGRICGAKFKVGEPIYRCKECSFDDTCVLCVNCFNPKDHTGHHVYTTICTEFNNGICDCGDKEAWNHTLFCKAEEGGGSHHHHHHHHHHGGGSGGGSGGGSGLNDFFEAQKIEWHEGGGSGGGSGGGSGLNDFFEAQKIEWHE
– | sub-micromolar | PS961: Planctomycetes ClpS variant recognizer for N-terminal leucine, isoleucine, and valine (protein) MPTAASATESAIEDTPAPARPEVDGRTKPKRQPRYHVVLWDDDDHTYQYVVVMLRSLFGHPPSRGYRMAKEMDTQGRVIVLTTTREHAELKRDQIHAFGRDRLLARSKGSMKASIEAEE
